Laboratory results reported in IntAct's records for PubMed 19549854.

B1: [PIN+] prion protein RNQ1 (Saccharomyces cerevisiae), P25367 (parent)
chain: MDTDKLISEAESHFSQGNHAEAVAKLTSAAQSNPNDEQMSTIESLIQKIAGYVMDNRSGGSDASQDRAAGGGSSFMNTLMADSKGSSQTQLGKLALLATVMTHSSNKGSSNRGFDVGTVMSMLSGSGGGSQSMGASGLAALASQFFKSGNNSQGQGQGQGQGQGQGQGQGQGSFTALASLASSFMNSNNNNQQGQNQSSGGSSFGALASMASSFMHSNNNQNSNNSQQGYNQSYQNGNQNSQGYNNQQYQGGNGGYQQQQGQSGGAFSSLASMAQSYLGGGQTQSNQQQYNQQGQNNQQQYQQQGQNYQHQQQGQQQQQGHSSSFSALASMASSYLGNNSNSNSSYGGQQQANEYGRPQQNGQQQSNEYGRPQYGGNQNSNGQHESFNFSGNFSQQNNNGNQNRY

Variants of: B1
Conditions: with mas5_yeast YDJ1, P25491
mas5_yeast YDJ1, P25491, sequence (P25491 whole entry): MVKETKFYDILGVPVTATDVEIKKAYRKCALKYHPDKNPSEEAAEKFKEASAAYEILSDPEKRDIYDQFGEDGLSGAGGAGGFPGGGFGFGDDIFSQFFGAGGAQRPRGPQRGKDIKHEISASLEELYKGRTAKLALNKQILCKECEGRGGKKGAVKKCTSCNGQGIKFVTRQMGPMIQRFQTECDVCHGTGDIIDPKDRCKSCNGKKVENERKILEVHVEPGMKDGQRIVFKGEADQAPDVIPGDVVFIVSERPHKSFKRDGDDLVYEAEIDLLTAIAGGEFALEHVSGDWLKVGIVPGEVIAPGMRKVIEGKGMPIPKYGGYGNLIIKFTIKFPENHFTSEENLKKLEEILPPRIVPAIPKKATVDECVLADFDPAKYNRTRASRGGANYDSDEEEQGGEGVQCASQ

| Variant | effect of a mutation on the interaction |
| --- | --- |
| N253Y | disrupting interaction |
| Q257Y | disrupting interaction |
